This note sets out measurements from article PMC8516035.

Data set [1] has as its system T1, phi13 CI, His-TEV tag cleaved (Staphylococcus aureus phage phi13), ORF:0019350b.
T1 sequence: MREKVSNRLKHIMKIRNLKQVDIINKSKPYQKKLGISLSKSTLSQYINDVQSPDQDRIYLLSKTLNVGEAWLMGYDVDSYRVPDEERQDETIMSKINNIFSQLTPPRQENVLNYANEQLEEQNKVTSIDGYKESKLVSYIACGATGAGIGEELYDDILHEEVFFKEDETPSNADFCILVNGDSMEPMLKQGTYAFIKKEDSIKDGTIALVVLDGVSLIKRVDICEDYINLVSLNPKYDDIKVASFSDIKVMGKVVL
The experiment in a line: EMSA. (In EMSA bound probe runs differently from free probe, usually more slowly.)

Data set [2] deals with phi13 CI, His-TEV tag cleaved (Staphylococcus aureus phage phi13). The data set is described as follows: EMSA. Conditions: Binding buffer (as listed, possibly stock) 100 mM Tris-HCl, 5 mM EDTA, 500 mM NaCl, 5 mM DTT, 25% glycerol, plus BSA and sheared DNA; pH not stated; ~0.5 nM ….
In data set [3] the test system is phi13 rCI (CI repressor, N-terminal His-TEV) (Staphylococcus aureus phage phi13). The experiment in a line: EMSA. Conditions: Binding buffer (as listed, possibly stock) 100 mM Tris-HCl, 5 mM EDTA, 500 mM NaCl, 5 mM DTT, 25% glycerol, plus BSA and sheared DNA; pH not stated; ~0.5 nM ….
The test system is the same in data set [4]. The data set is described as follows: EMSA. The note with it: Binding buffer (as listed, possibly stock) 100 mM Tris-HCl, 5 mM EDTA, 500 mM NaCl, 5 mM DTT, 25% glycerol, plus BSA and sheared DNA, pH not stated, ~0.5 nM ….
Data set [5] deals with ɸ13 rCI (recombinant CI repressor protein of phage ɸ13 with an N-terminal His-tag and TEV cleavage site) (S. aureus phage ɸ13). The experiment in a line: SEC; HiLoad 26/600 Superdex200 column; 20 mM Tris, 100 mM NaCl, pH 7.5; calibrated with Mw standards (Blue Dextran, Ferritin, Catalase, Aldolase, Carbonic Anhydrase, Aprotinin); tagged rCI after IMAC. In general terms: In gel filtration, larger molecules generally elute earlier.

The mark [6] stands for this setting: apparent, free-probe loss, no specific band detected.

In data set [1], “GTAATACGACTCACTATAGGATAATAAAGCTTGTTGAACAAAAATTCAACAAAAAAGTTCATAAATCATGAATTTTTGTATTGACTTGATTCAAAACAAGGTGTAAAGTGGTAACTTTCACACAAAAGG (double strand) [OR]” displayed a Kd of 12 nM.
In data set [1], “GTAATACGACTCACTATAGGATATACCGGTAGAGAAAATACACTTATATTTTTTTAAAGAAAAAGTTCATGTTATATGAACTTAAGGAGGGGCACAATGGAACAAATCACGGATCCGGTAACTTTCACACAAAAGG (double strand) [OD]” yielded a Kd of 12 nM.
Still for that read-out and setting: the value for “GTAATACGACTCACTATAGGGACTTGATTCAAAACAAGGTGTAAAGTATAGTTAAGTTCATGATACGTGAACTTGAGAGGAGGTGCTTTTATGTGTTACGACTACTCAGGTAACTTTCACACAAAAGG (double strand) [OL]” was 12 nM.
For OD, the Kd in data set [2] was determined as 12 nM; in data set [3], 15 nM; in data set [4] it was 3.3 nM.
With OD control, the Kd in data set [4] (setting [6]) came out at 900 nM.
Consider OL, for which the Kd in data set [2] is 12 nM; in data set [3], 22 nM; in data set [4], 3.9 nM.
On to OL control, for which the Kd in data set [4] (setting [6]) amounted to 690 nM.
Turning to OR, the Kd came to 12 nM in data set [2], 310 nM in data set [3] and 100 nM in data set [4].
OR control: in data set [4] (setting [6]), the Kd worked out at 690 nM.
By stoichiometry N is commonly meant a count of units in the complex or per binding partner. Take “ɸ13 rCI (recombinant CI repressor protein of phage ɸ13 with an N-terminal His-tag and TEV cleavage site)”: in data set [5], the stoichiometry N was 4.
